B1: Meiosis-inducing protein 1 (Saccharomyces cerevisiae), P21190 (parent)
chain: MQADMHGKLHAALEDGFFLFPFEQQQQPNIYYDTTTDQEDRPCFSFGSTISPRSWHFEKSDKIASSQLQNLVHTQPIHLINPQILFNEEFLNLENIDSQPISKETKTTKDCTMATGPERGKKSSESTRSSSLSSLFSNDESASTFHSSFNNHDNFQKSNRNGDDIDISDTIKYETNTNAQKDIKIFQENFEFNEFPYTQDFYPYTTNYTYSKPTNIHESINSKNTDSYSQYQDQFPPHTDNIHSFNNRHYSNHKSTNCNYYNNTSNNNNASDNVYEADPFIDEPQVPSYYYPLEIAFDVEKSPPPSLQKLNSKELEFLKKLNSKLSRYAAAYSFSSSNDQDYYDKVRFQEISYKFSKTYS
partner: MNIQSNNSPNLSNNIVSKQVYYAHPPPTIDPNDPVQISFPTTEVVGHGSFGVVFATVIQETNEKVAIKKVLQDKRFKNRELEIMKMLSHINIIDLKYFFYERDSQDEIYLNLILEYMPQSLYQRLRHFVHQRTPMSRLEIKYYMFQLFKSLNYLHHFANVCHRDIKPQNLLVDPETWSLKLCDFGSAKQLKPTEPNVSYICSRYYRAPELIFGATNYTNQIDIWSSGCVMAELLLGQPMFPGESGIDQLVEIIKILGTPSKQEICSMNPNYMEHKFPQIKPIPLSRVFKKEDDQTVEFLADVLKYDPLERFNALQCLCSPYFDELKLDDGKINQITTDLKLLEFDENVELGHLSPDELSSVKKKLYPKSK
B2: Meiosis-inducing protein 1 (Saccharomyces cerevisiae), P21190 (parent)
chain: B1 chain
partner: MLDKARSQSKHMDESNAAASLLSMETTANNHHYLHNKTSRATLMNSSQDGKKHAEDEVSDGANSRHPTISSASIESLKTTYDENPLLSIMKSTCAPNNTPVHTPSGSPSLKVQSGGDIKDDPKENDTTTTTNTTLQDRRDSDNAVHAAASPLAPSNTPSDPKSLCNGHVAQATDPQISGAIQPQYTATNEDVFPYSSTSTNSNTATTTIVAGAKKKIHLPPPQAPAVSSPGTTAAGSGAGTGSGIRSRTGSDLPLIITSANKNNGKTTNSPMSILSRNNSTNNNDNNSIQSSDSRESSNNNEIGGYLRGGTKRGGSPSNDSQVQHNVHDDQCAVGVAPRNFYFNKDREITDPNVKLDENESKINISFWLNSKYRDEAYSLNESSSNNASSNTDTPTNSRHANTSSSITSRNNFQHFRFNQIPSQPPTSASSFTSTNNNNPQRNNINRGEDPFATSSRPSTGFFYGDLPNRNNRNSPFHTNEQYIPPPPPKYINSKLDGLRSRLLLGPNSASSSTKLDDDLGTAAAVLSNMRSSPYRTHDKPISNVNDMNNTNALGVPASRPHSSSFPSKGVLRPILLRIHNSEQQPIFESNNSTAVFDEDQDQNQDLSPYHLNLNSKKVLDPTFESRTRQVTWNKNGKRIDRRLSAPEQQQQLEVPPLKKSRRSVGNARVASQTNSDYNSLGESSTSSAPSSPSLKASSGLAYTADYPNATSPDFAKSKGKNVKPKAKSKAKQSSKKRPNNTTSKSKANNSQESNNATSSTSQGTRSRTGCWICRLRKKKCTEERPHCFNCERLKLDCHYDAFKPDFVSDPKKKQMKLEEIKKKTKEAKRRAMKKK

Variants of: B1
Details: with rim11_yeast RIM11, P38615

Variant | effect of a mutation on the interaction
L321F | disrupting interaction strength
L321F;S360F | decreasing interaction strength
R347K | disrupting interaction strength
R347K;S360F | decreasing interaction strength

Variants of: B1
Details: with rim11_yeast RIM11, P38615
Remark: another data set of the same source

Variant | effect of a mutation on the interaction
L321F;S360F | with no effect
R347K;S360F | with no effect
Y342A;Y343A;S352A;Y353A;S356A;T358A;Y359A;S360A | with no effect

Variants of: B2
Details: with ume6_yeast UME6, P39001

Variant | effect of a mutation on the interaction
L321F | disrupting interaction strength
L321F;S360F | decreasing interaction strength
Y342A;Y343A;S352A;Y353A;S356A;T358A;Y359A;S360A | disrupting interaction strength
R347K | disrupting interaction strength
R347K;S360F | disrupting interaction strength
S352A;S356A;S360A | decreasing interaction strength
